Here are results for one molecule from patent US20230071765A1, “COMPOSITIONS HAVING THIOREDOXIN ACTIVITY AND RELATED METHODS” (ORPRO THERAPEUTICS, INC., priority 2020, published 2023).

Data set [1] can be described thus: thiol pKa (acid-dissociation constant). The format is physicochemical. As to conditions: verified experimentally, data not shown. From the text: The human CF airway surface liquid is approximately 0.8 pH units more acidic than that of unaffected individuals due to the loss of bicarbonate-mediated buffering of proton secretion (Garland A L, Walton W G, Coakley R D, et al., 2013, Molecular basis for pH-dependent mucosal dehydration in cystic fibrosis airways. PNAS 110:15973-8; Shah V S, Meyerholz D K, Tang X X, et al., 2016, Airway acidification initiates host defense abnormalities in cystic fibrosis mice, Science 351:503-7). This has consequences for the clinical use of reducing agents to treat condensed, abnormal mucus. […] Cys thiol pKa values range from pH 8.5 (cysteamine) to pH 9.5 (NAC). In marked contrast to these classical thiols, the structurally-stabilized pKa of the Trx active site Cys32 is two to three logs lower (pH 6.1-6.3), allowing high activity even at acidic CF airway pH (FIG. 2).

The nature of data set [2]: check for precipitates by centrifugation. In kind it is physicochemical. As to conditions: 25° C., 0-232 hours. Here is the method: The stability of ORP100S without the red fraction was evaluated at room temperature (25° C.) by SEC analysis as described in the preceding Examples. Protein solutions were prepared in PBS (saline) at concentrations of 70, 80, 90, 100 and 110 mg/ml corresponding to 6.0, 6.8, 7.7, 8.5 and 9.4 mM. These were incubated at room temperature for 0, 20, 44, 68, 140, 188 and 232 hours. At each time point tubes were centrifuged at 1000 RFC to check for precipitates and percent monomeric ORP100S determined by SEC. Additionally, at the 68 hr time point DTNB assays were performed to evaluate the degree of reduction.

The test system of data set [3] is primary HBE cells from CF donors homozygous for F508del. Nature of the data set: μOCT of MCT rate and CBF in CF primary HBE cells. The format is cell-based, human. The text has this: Primary human bronchial epithelial (HBE) cells were derived from lung explants from healthy failed donors and CF patients homozygous for F508del CFTR. […]
One-micron resolution spectral domain μOCT was used to obtain measurements of mucociliary transport (MCT) rate and ciliary beat frequency (CBF) in HBE monolayers and of MCT rate of sputum ex vivo. This first-in-kind, high-speed (40 frames per second, 512 lines per frame) microscopic reflectance imaging modality enables simultaneous anatomic imaging in cell cultures and intact tissues that readily distinguishes the properties of CF compared to normal epithelia (Liu L, Chu K K, Houser G H, Diephuis B J, Li Y, Wilsterman E J, Shastry S, Dierksen G, Birket S E, Mazur M, et al., 2013, Method for quantitative study of airway functional microanatomy using micro-optical coherence tomography, PLoS One 8(1):e54473; Tuggle K L, Birket S E, Cui X, Hong J, Warren J, Reid L, Chambers A, Ji D, Gamber K, Chu K K, et al., 2014, Characterization of defects in ion transport and tissue development in Cystic Fibrosis Transmembrane Conductance Regulator (CFTR)-knockout rats. […] Images were captured, and MCT rate and CBF calculated, as described in the preceding references.

Data set [4] relates to CF patient sputum on wild type rat trachea. Description: CF sputum transport ex vivo on excised rat trachea (μOCT). Also noted: species or system human sputum. Here is the method: To determine the effect of ORP100S on CF sputum transportability, sputum specimens spontaneously expectorated from 4 CF patients hospitalized for pulmonary exacerbation were collected and stored at 4° C. before being divided into 200 μL aliquots and treated with ORP100S (3 mM), PBS, DTT (1.6 mM), or DNase (10 or 25 μg/ml) on the day of or day following collection. Upon treatment, sputum aliquots were placed in a 37° C. water bath for 2 hrs and then applied (3 μl per sample) for μOCT imaging to the distal end of trachea excised from adult non-CF rats. Trachea were washed 2× with 500 μl of PBS before sputum addition. Sample conditions were applied in triplicate in random order at distinct anatomic locations—2 washes using 500 μl of PBS were performed between each sample addition—and at least 3 images were collected from each region of interest. Confirmation of trachea viability was obtained by imaging with PBS upon completion of the experiment.
One-micron resolution spectral domain μOCT was used to obtain measurements of mucociliary transport (MCT) rate and ciliary beat frequency (CBF) in HBE monolayers and of MCT rate of sputum ex vivo. This first-in-kind, high-speed (40 frames per second, 512 lines per frame) microscopic reflectance imaging modality enables simultaneous anatomic imaging in cell cultures and intact tissues that readily distinguishes the properties of CF compared to normal epithelia (Liu L, Chu K K, Houser G H, Diephuis B J, Li Y, Wilsterman E J, Shastry S, Dierksen G, Birket S E, Mazur M, et al., 2013, Method for quantitative study of airway functional microanatomy using micro-optical coherence tomography, PLoS One 8(1):e54473; Tuggle K L, Birket S E, Cui X, Hong J, Warren J, Reid L, Chambers A, Ji D, Gamber K, Chu K K, et al., 2014, Characterization of defects in ion transport and tissue development in Cystic Fibrosis Transmembrane Conductance Regulator (CFTR)-knockout rats. PLoS One 9(3):e91253). In addition to MCT rate and CBF, μOCT also has the capability to assess physical characteristics of the airway surface liquid. Images were captured, and MCT rate and CBF calculated, as described in the preceding references.
The effect of ORP100S on mucus clearance using intact rat trachea, which include the complexities of the airway surface such as gland expression of a fully differentiated mucosal surface, was further evaluated. […] MCT was measured by projecting a cross-sectional line through the mucus through time, with the slope of the particle trajectories indicating velocity. […]

For data set [5] the following is noted: material purified with removal of the red fraction, 68.4 mg/ml.

B1: ORP100S: thioredoxin with monothiol active site, Cys35 and non-active Cys 62, 69 and 73 substituted with serine (SEQ ID NO:29) (protein)
chain: MVKQIESKTAFQEALDAAGDKLVVVDFSATWCGPSKMIKPFFHSLSEKYSNVIFLEVDVDDSQDVASESEVKSMPTFQFFKKGQKVGEFSGANKEKLEATINELV
modifications: synthetic peptide motif
For B1, the “pKa compared to native Trx” value in data set [1] is “same pKa as native Trx”. The “Precipitate (all time points)” value in data set [2] (70 mg/mL in PBS), in data set [2] (80 mg/mL in PBS), in data set [2] (90 mg/mL in PBS), in data set [2] (100 mg/mL in PBS) and in data set [2] (110 mg/mL in PBS) was “None” each time. Also, in data set [3] (3 hrs post treatment), the CBF entry was “no meaningful differences”. In addition, in data set [3] (3 hrs post-treatment, ORP100S 1-3 mM, DTT 1.6 mM, PBS 7.30±2.9, mean±SE), the MCT rate is listed as 54.73±15.3 mm/min. In data set [4] (3 mM, μOCT images), the “sputum density vs. PBS-treated sputum” value was “effective in decreasing sputum density”. Besides, the “change in MCT rate normalized to the effect of PBS” value in data set [4] (sputum treated 2 hrs, ORP100S 3 mM, DTT 1.6 mM, DNase 10 or 25 μg/ml) amounted to 3.80±0.35 fold vs. PBS. Further, the “MCT rate of treated sputum” value in data set [4] (sputum treated 2 hrs, ORP100S 3 mM, DTT 1.6 mM, DNase 10 or 25 μg/ml, PBS 0.97±0.17) worked out at 4.68±0.9 mm/min. For the same molecule, the “Endotoxin level (Endosafe PTS)” value in data set [5] came out at 0.002 EU/mg.
